Test results: PMC3384314
Positions count from the first letter of the chain named.

Key:
[1] = molecular target: T1, dHEXIM ILAA (Drosophila, UniProt Q7K4N7 1-349, K42I;H43L;R44A;R45A); test: EMSA
T1 sequence: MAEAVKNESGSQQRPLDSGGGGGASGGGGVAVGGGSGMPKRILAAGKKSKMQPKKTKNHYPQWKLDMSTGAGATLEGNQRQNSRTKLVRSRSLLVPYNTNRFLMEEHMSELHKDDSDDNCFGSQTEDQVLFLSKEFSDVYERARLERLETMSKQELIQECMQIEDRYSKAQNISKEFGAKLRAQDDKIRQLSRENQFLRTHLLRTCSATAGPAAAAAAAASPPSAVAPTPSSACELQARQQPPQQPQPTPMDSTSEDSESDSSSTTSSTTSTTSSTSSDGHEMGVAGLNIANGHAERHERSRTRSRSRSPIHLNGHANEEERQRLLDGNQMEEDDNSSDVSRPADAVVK

[2] = molecular target: T2, dHEXIM WT (Drosophila, UniProt Q7K4N7 1-349); test: EMSA
T2 sequence: T1 sequence with I42K, L43H, A44R, A45R

B1: dsRNA oligo (TTF2 25-mer) (dsRNA)
RNA 1: CAAGCAAGAGGCAGAGAUCCCAGGU
RNA 2: ACCUGGGAUCUCUGCCUCUUGCUUG
B1: no binding [1]; binds [2].
